Series [1] can be described thus: Thiol-disulfide exchange equilibrium (GSH/GSSG redox buffer): intramolecular disulfide formation between two Cys of reduced peptide; Ceff=([pep_ox]/[pep_red])x([GSH]^2/[GSSG]), HPLC after acid quench. To be noted: the molecule shown is the open-chain precursor; 32-membered ring; water, ca. 0.15 M Tris, 1 mM EDTA, pH 8.10, 25 mM total glutathione; 0.375 mM; 20.0 °C; 1.5 h.

The conditions of series [2]: cited from earlier work.
Series [3] is described as follows: Circular dichroism spectra of peptides. The format is physicochemical. The conditions noted are these: 10° C.; 20 μM peptide in 20 mM potassium phosphate, pH 7.0. The protocol:
Terminal serine and lysine residues were added to improve the solubility of some variants of the CD4 peptide, which are otherwise uncharged. A similar modification was made to bhpW as a control. Non-turn residues that differ between bhpW and the CD4 loop are underlined. Coelution of reduced and oxidized peptides prevented measurement of Ceff for the T2, N3 variant of the CD4 peptide. Circular dichroism spectra were acquired at 10° C. with an Aviv Instruments, Inc. Model 202 spectrophotometer; peptide concentrations were 20 μM in 20 mM potassium phosphate, pH 7.0.
Background: Circular dichroism is the unequal absorption of left and right circularly polarised light.

A short description of series [4]: Thiol-disulfide exchange equilibrium (GSH/GSSG): intramolecular disulfide formation; ddG=-RT ln(Ceff,X/Ceff,Leu), gly-asn turn peptides 1. To be noted: the molecule shown is the open-chain precursor; 32-membered ring; water, ca. 0.15 M Tris, 1 mM EDTA, pH 8.10, 25 mM total glutathione; 0.375 mM; 20.0 °C; 1.5 h.
Series [5] can be described thus: Cysteine effective concentration (Ceff) measurement, thiol-disulfide equilibrium relative to glutathione. The format is physicochemical. To be noted: Table 2, bhpW and CD4 C′-C″ loop peptides, pH 8.10, 20° C. The protocol: Cysteine Effective Concentration Measurements. Glutathione stock solutions were prepared by mixing 3 volumes of 0.2 M reduced glutathione (GSH) with 1 volume of 0.1 M oxidized glutatione (GSSG). Aliquots were stored at −80° C. and were stable for several months; use of a single batch eliminated any error in ΔΔG values that might arise from variability of total glutathione concentration. Thiol-disulfide equilibria were established by mixing 50 μL peptide stock (approximately 3 mM in water) with 50 μL glutathione stock, deoxygenating the acidic solution with vacuum/argon cycles from a Firestone valve, then adding 300 μL of deoxygenated buffer by syringe (0.2 M tris, pH 8.0; 1 mM EDTA; 67 mM tris base to titrate glutathione), followed by further deoxygenation of the mixture. The final pH of all reaction mixtures was 8.10±0.05. Solutions were stirred under argon and maintained at 20° C. in a water bath. After 1.5 h, successive aliquots (100 μL) were removed with a gastight syringe, immediately quenched by discharge into 400 μL of 3.1 mM HCl, and analyzed by HPLC with a minimum of delay. Ceff values were calculated from the molar ratios of the reduced and oxidized forms of peptide and glutathione (peak area ratios corrected for absorbance differences measured by HPLC), assuming 0.025 M total glutathione monomer (i.e., neglecting the minor amount (<1%) of glutathione present in mixed disulfides with peptide): Ceff=([peptideox]/[peptidered])×([GSH]^2/[GSSG]) [GSH]+2[GSSG]=0.025 M [GSSG]=0.025 M/{2+3.26 (GSH peak area/GSSG peak area)} [peptideox]/[peptidered]=equilibrium peak area ratio/absorbance ratio
Two or three samples from each reaction mixture were analyzed; there were no shifts in populations with time, and calculated Ceff values typically varied by less than 5% (equivalent to 30 cal/mol uncertainty in ΔΔG).

Where two headings read alike, the source gives them in different places. Positions of bridges follow the written chain, without caps; N, C: chain ends. No end group written: not given here.

The values below come from patent US7235626B1, “Structured peptide scaffold for displaying turn libraries on phage” (Genentech, Inc., priority 1999, dated 2007).

As for `CC(C)C[C@H](NC(=O)[C@H](Cc1ccccc1)NC(=O)[C@H](CO)NC(=O)CNC(=O)[C@H](CCC(N)=O)NC(=O)[C@H](Cc1c[nH]c2ccccc12)NC(=O)[C@@H](NC(=O)[C@H](CS)NC(=O)[C@@H](N)CO)[C@@H](C)O)C(=O)N[C@H](C(=O)N[C@@H](CS)C(=O)N[C@@H](CCCCN)C(N)=O)[C@@H](C)O` [H-SCTWQGSFLTCK-NH2], the ring closure, Ceff in series [1] was found to be 120 mM. For the molecule `CC(C)C[C@H](NC(=O)[C@H](CCCCN)NC(=O)[C@H](CC(N)=O)NC(=O)CNC(=O)[C@H](CCC(=O)O)NC(=O)[C@H](Cc1c[nH]c2ccccc12)NC(=O)[C@@H](NC(=O)[C@H](CS)NC(=O)[C@@H](N)CO)[C@@H](C)O)C(=O)N[C@H](C(=O)N[C@@H](CS)C(=O)N[C@@H](CCCCN)C(N)=O)[C@@H](C)O` [H-SCTWEGNKLTCK-NH2], the ring closure, Ceff in series [1] was found to be 273 mM. Consider “YITNSDGTWT (turn peptide) [model peptide forming a register-shifted hairpin]”, for which, in series [2] (in water, NMR estimate), the hairpin population is reported as 80%. For the molecule MQIGVKNPDGTITLEV (turn peptide), the hairpin population entry in series [2] (in water, NMR estimate) was “ca. 80%”. For “SCTNQGSFLTCK-NH2 (disulfide 2-11 (inferred)) [T2, N3 variant of the CD4 peptide]”, the “[θ]215” value in series [3] was −5,000 deg cm^2 dmol^−1. As for `CC(=O)N[C@@H](CS)C(=O)N[C@H](C(=O)N[C@@H](Cc1c[nH]c2ccccc12)C(=O)N[C@@H](CCC(=O)O)C(=O)NCC(=O)N[C@@H](CC(N)=O)C(=O)N[C@@H](CCCCN)C(=O)N[C@@H](CC(C)C)C(=O)N[C@H](C(=O)N[C@@H](CS)C(N)=O)[C@@H](C)O)[C@@H](C)O` [Ac-CTWEGNKLTC-NH2], the ring closure, dG (kcal/mol relative to X=Leu) in series [4] is -0.53. Also, the ring closure, Ceff in series [1] was 210 mM. Molecule “SCGWQGSFLTCK-NH2 (disulfide 2-11 (inferred))” had a Ceff in series [5] of 48 ± 0 mM. Also, in series [3], the “[θ]215” value is −6,100 deg cm^2 dmol^−1.

In series [4], `CC(=O)N[C@@H](CS)C(=O)N[C@H](C(=O)N[C@H](C(=O)N[C@@H](CCC(=O)O)C(=O)NCC(=O)N[C@@H](CC(N)=O)C(=O)N[C@@H](CCCCN)C(=O)N[C@@H](CC(C)C)C(=O)N[C@H](C(=O)N[C@@H](CS)C(N)=O)[C@@H](C)O)[C@@H](C)O)[C@@H](C)O` [Ac-CTTEGNKLTC-NH2] registered a ring closure, dG (kcal/mol relative to X=Leu) of 0.3. `CC(=O)N[C@@H](CS)C(=O)N[C@H](C(=O)N[C@@H](CC(C)C)C(=O)N[C@@H](CCC(=O)O)C(=O)NCC(=O)N[C@@H](CC(N)=O)C(=O)N[C@@H](CCCCN)C(=O)N[C@@H](CC(C)C)C(=O)N[C@H](C(=O)N[C@@H](CS)C(N)=O)[C@@H](C)O)[C@@H](C)O` [Ac-CTLEGNKLTC-NH2] showed a ring closure, dG (kcal/mol relative to X=Leu) in series [4] of 0. The ring closure, Ceff in series [1] was 85 mM.

In series [5], “SCTWEGNKLTCK-NH2 (disulfide 2-11 (inferred)) [bhpW with terminal serine and lysine added as a control]” gave a Ceff of 273 ± 2 mM. In addition, the “[θ]215” value in series [3] is −17,400 deg cm^2 dmol^−1. In the case of “RGITVNGKTYGR (turn peptide) [designed β-hairpin peptide, type I′ turn flanked by three-residue strands]”, in series [2] (in water, NMR estimate), the hairpin population entry is given as “about 30%”.

With `CC(=O)N[C@@H](CS)C(=O)N[C@H](C(=O)N[C@@H](Cc1ccccc1)C(=O)N[C@@H](CCC(=O)O)C(=O)NCC(=O)N[C@@H](CC(N)=O)C(=O)N[C@@H](CCCCN)C(=O)N[C@@H](CC(C)C)C(=O)N[C@H](C(=O)N[C@@H](CS)C(N)=O)[C@@H](C)O)[C@@H](C)O` [Ac-CTFEGNKLTC-NH2], the ring closure, Ceff in series [1] amounted to 88 mM. In series [4], `CC(=O)N[C@@H](CS)C(=O)N[C@H](C(=O)N[C@H](C(=O)N[C@@H](CCC(=O)O)C(=O)NCC(=O)N[C@@H](CC(N)=O)C(=O)N[C@@H](CCCCN)C(=O)N[C@@H](CC(C)C)C(=O)N[C@H](C(=O)N[C@@H](CS)C(N)=O)[C@@H](C)O)C(C)C)[C@@H](C)O` [Ac-CTVEGNKLTC-NH2] came in with a ring closure, dG (kcal/mol relative to X=Leu) of 0.09. In series [1], this molecule had a ring closure, Ceff of 73 mM. “SCGNQGSFLTCK-NH2 (disulfide 2-11 (inferred)) [cd1a]” yielded a Ceff in series [5] of 45 ± 4 mM. Also, the “[θ]215” value in series [3] was −1,500 deg cm^2 dmol^−1. `CC(C)C[C@H](NC(=O)[C@H](Cc1ccccc1)NC(=O)[C@H](CO)NC(=O)CNC(=O)[C@H](CCC(N)=O)NC(=O)[C@H](Cc1c[nH]c2ccccc12)NC(=O)CNC(=O)[C@H](CS)NC(=O)[C@@H](N)CO)C(=O)N[C@H](C(=O)N[C@@H](CS)C(=O)N[C@@H](CCCCN)C(N)=O)[C@@H](C)O` [H-SCGWQGSFLTCK-NH2] registered a ring closure, Ceff in series [1] of 48 mM. For `CC(=O)N[C@@H](CS)C(=O)N[C@H](C(=O)N[C@@H](CCCCN)C(=O)N[C@@H](CCC(=O)O)C(=O)NCC(=O)N[C@@H](CC(N)=O)C(=O)N[C@@H](CCCCN)C(=O)N[C@@H](CC(C)C)C(=O)N[C@H](C(=O)N[C@@H](CS)C(N)=O)[C@@H](C)O)[C@@H](C)O` [Ac-CTKEGNKLTC-NH2], the ring closure, Ceff in series [1] is 52 mM. In turn, `CC(=O)N[C@@H](CS)C(=O)N[C@H](C(=O)N[C@@H](Cc1ccc(O)cc1)C(=O)N[C@@H](CCC(=O)O)C(=O)NCC(=O)N[C@@H](CC(N)=O)C(=O)N[C@@H](CCCCN)C(=O)N[C@@H](CC(C)C)C(=O)N[C@H](C(=O)N[C@@H](CS)C(N)=O)[C@@H](C)O)[C@@H](C)O` [Ac-CTYEGNKLTC-NH2] yielded a ring closure, dG (kcal/mol relative to X=Leu) in series [4] of -0.08. Further, the ring closure, Ceff in series [1] worked out at 98 mM. Consider IYSNSDGTWT (turn peptide), for which the hairpin population in series [2] (in water, NMR estimate) is 30%. With “SCTWQGSFLTCK-NH2 (disulfide 2-11 (inferred)) [cd2a]”, the Ceff in series [5] came to 120 ± 0 mM. For the same molecule, in series [3], the “[θ]215” value was −14,000 deg cm^2 dmol^−1. Turning to “GEWTYDDATKTFTVTE (turn peptide) [hairpin peptide derived from the B1 domain of protein G]”, the hairpin population in series [2] (273 K, from denaturation study) is given as 80%. Besides, in series [2] (assuming ΔCp=0), the ΔH of folding is -11.6 kcal/mol and the ΔS of folding was −39 cal/mol K. Further, the hairpin population result in series [2] (in water, NMR estimate) was “about 50%”.

As for `CC(=O)N[C@@H](CS)C(=O)N[C@H](C(=O)N[C@@H](CC(N)=O)C(=O)N[C@@H](CCC(=O)O)C(=O)NCC(=O)N[C@@H](CC(N)=O)C(=O)N[C@@H](CCCCN)C(=O)N[C@@H](CC(C)C)C(=O)N[C@H](C(=O)N[C@@H](CS)C(N)=O)[C@@H](C)O)[C@@H](C)O` [Ac-CTNEGNKLTC-NH2], the ring closure, Ceff in series [1] turned out to be 52 mM. Regarding `CC(C)C[C@H](NC(=O)[C@H](Cc1ccccc1)NC(=O)[C@H](CO)NC(=O)CNC(=O)[C@H](CCC(N)=O)NC(=O)[C@H](CC(N)=O)NC(=O)CNC(=O)[C@H](CS)NC(=O)[C@@H](N)CO)C(=O)N[C@H](C(=O)N[C@@H](CS)C(=O)N[C@@H](CCCCN)C(N)=O)[C@@H](C)O` [H-SCGNQGSFLTCK-NH2], the ring closure, Ceff in series [1] came out at 45 mM. In the case of “IYSNPDGTWT (turn peptide) [variant of tendamistat-based model peptide]”, the hairpin population in series [2] (in water, NMR estimate) was 30%. Take `CC(=O)N[C@@H](CS)C(=O)N[C@H](C(=O)N[C@@H](CC(=O)O)C(=O)N[C@@H](CCC(=O)O)C(=O)NCC(=O)N[C@@H](CC(N)=O)C(=O)N[C@@H](CCCCN)C(=O)N[C@@H](CC(C)C)C(=O)N[C@H](C(=O)N[C@@H](CS)C(N)=O)[C@@H](C)O)[C@@H](C)O` [Ac-CTDEGNKLTC-NH2]: in series [4], the ring closure, dG (kcal/mol relative to X=Leu) came to 0.32. For KKYTVSINGKKITVSI (turn peptide), in series [2] (298 K), the “ΔG of hairpin formation” value is listed as 0.08 kcal/mol. Moreover, the hairpin population in series [2] (in water, 303 K) is on record as 50%.
